Results taken from patent US20160145598.
Read-outs that look alike come from different tables or passages of the source.

Assays:
thrombin [1] = tested on: thrombin
thrombin [2] = biological target: thrombin; remark: listed apart in the source

FX-WT (human factor X from an optimized nucleotide sequence, with C-terminal HPC4 tag)
appearance of FXa after incubation with thrombin (Pefachrome FXa8595 hydrolysis at 405 nm) (thrombin [1]): the plasma and WT FXs being negative since they do not have a thrombin recognition site

B1: plasma factor X (protein)
chain 1: ANSFLEEMKKGHLERECMEETCSYEEAREVFEDSDKTNEFWNKYKDGDQCETSPCQNQGKCKDGLGEYTCTCLEGFEGKNCELFTRKLCSLDNGDCDQFCHEEQNSVVCSCARGYTLADNGKACIPTGPYPCGKQTLER
chain 2: SVAQATSSSGEAPDSITWKPYDAADLDPTENPFDLLDFNQTQPERGDNNLTRIVGGQECKDGECPWQALLINEENEGFCGGTILSEFYILTAAHCLYQAKRFKVRVGDRNTEQEEGGEAVHEVEVVIKHNRFTKETYDFDIAVLRLKTPITFRMNVAPACLPERDWAESTLMTQKTGIVSGFGRTHEKGRQSTRLKMLEVPYVDRNSCKLSSSFIITQNMFCAGYDTKQEDACQGDSGGPHVTRFKDTYFVTGIVSWGEGCARKGKYGIYTKVTAFLKWIDRSMKTRGLPKAKSHAPEVITSSPLK
appearance of FXa after incubation with thrombin (Pefachrome FXa8595 hydrolysis at 405 nm) (thrombin [2]): the plasma and WT FXs being negative since they do not have a thrombin recognition site
